# From article PMC11286949, “Structural basis of tRNA recognition by the widespread OB fold”
# Substitutions are numbered along the chain they refer to. Names and notes keep the numbering of the source.
# T1: Arc1p dN (Saccharomyces cerevisiae, UniProt P46672 132-376, del1-131)
# T1 sequence: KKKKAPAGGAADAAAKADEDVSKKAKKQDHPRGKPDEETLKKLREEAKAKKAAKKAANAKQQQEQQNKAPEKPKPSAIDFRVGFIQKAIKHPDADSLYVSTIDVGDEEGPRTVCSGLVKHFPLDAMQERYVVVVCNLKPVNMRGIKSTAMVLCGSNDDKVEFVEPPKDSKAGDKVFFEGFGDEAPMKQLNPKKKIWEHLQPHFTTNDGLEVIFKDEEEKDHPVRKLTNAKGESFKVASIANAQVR
# T2: Arc1p (Saccharomyces cerevisiae, UniProt P46672 1-376)
# T2 sequence: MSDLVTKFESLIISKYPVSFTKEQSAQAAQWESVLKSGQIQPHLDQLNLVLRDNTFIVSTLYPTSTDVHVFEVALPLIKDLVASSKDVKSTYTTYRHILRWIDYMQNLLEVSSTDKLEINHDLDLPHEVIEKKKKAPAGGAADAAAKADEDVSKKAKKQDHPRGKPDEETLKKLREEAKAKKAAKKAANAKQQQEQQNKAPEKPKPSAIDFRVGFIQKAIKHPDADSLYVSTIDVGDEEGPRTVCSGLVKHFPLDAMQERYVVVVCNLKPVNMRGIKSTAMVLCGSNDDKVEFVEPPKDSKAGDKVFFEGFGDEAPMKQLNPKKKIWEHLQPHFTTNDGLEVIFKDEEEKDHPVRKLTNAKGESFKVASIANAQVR
# B1: tRNAIle G18C/G19C (G1, Fig. 5a) (structured_RNA)
# RNA: GGGCUUGUAGCUCAGGUCCUUAGAGCGCACCCCUGAUAAGGGUGAGGUCGGUGGUUCAAGUCCACUCAGGCCUACCA
# B2: tRNAIle G18C/G19C/dACCA (structured_RNA)
# RNA: GGGCUUGUAGCUCAGGUCCUUAGAGCGCACCCCUGAUAAGGGUGAGGUCGGUGGUUCAAGUCCACUCAGGCCC
# B3: tRNAIle ASL-GAAA/5'GGCC (structured_RNA)
# RNA: GGCCGGGCUUGUAGCUCAGGUGGUUAGAGCGCACCGCGAAAGCGGUGAGGUCGGUGGUUCAAGUCCACUCAGGCCC
# B4: tRNAIle ASL-GAAA/5'GC (structured_RNA)
# RNA: GCGGGCUUGUAGCUCAGGUGGUUAGAGCGCACCGCGAAAGCGGUGAGGUCGGUGGUUCAAGUCCACUCAGGCCC
# B5: tRNAIle 3'UGGU (structured_RNA)
# RNA: B1 RNA with G1A, C18G, C19G, A74U, C75G, C76G, A77U
# B6: tRNAIle ASL-GAAA (structured_RNA)
# RNA: GGGCUUGUAGCUCAGGUGGUUAGAGCGCACCGCGAAAGCGGUGAGGUCGGUGGUUCAAGUCCACUCAGGCCUACCA
# B7: tRNAIle d3'A (structured_RNA)
# RNA: AGGCUUGUAGCUCAGGUGGUUAGAGCGCACCCCUGAUAAGGGUGAGGUCGGUGGUUCAAGUCCACUCAGGCCUACC
# B8: tRNAIle dACCA (structured_RNA)
# RNA: B2 RNA with C18G, C19G
# B9: tRNAIle ASL-GAAA/dACCA (structured_RNA)
# RNA: GGGCUUGUAGCUCAGGUGGUUAGAGCGCACCGCGAAAGCGGUGAGGUCGGUGGUUCAAGUCCACUCAGGCCC
# B10: tRNAIle ASL-GAAA dACCA 3bp (structured_RNA)
# RNA: GGCGGGCUUGUAGCUCAGGUGGUUAGAGCGCACCGCGAAAGCGGUGAGGUCGGUGGUUCAAGUCCACUCAGGCCCGCC
# B11: tRNATyr ASL-GAAA dACCA 6bp (structured_RNA)
# RNA: GGGCCCGGUGGGGUUCCCGAGCGGCCAAAGGGAGCAGACGAAAGUCUGCCGUCAUCGACUUCGAAGGUUCGAAUCCUUCCCCCACCGGGCCC
# B12: tRNATyr G17C/G18C (structured_RNA)
# RNA: GGUGGGGUUCCCGAGCCCCCAAAGGGAGCAGACUGUAAAUCUGCCGUCAUCGACUUCGAAGGUUCGAAUCCUUCCCCCACCACCA
# B13: S. cerevisiae tRNAAsp (G1-C72) (structured_RNA)
# RNA: GCCGUGAUAGUUUAAUGGUCAGAAUGGGCGCUUGUCGCGUGCCAGAUCGGGGUUCAAUUCCCCGUCGCGGCGCCA
# B14: human mascRNA (structured_RNA)
# RNA: GAUGCUGGUGGUUGGCACUCCUGGUUUCCAGGACGGGGUUCAAAUCCCUGCGGCGUCUCCA
# B15: tRNAIle G18C/G19C (A1, Suppl. Fig. 13b) (structured_RNA)
# RNA: B1 RNA with G1A
# B16: MiniH dLoop+6bp (dsRNA)
# RNA 1: GCAUGACCACUCAGGCCUACCA
# RNA 2: AGGCUUGGGUGGUUAUGC
# B17: MiniH dLoop+2bp (dsRNA)
# RNA 1: GACCACUCAGGCCUACCA
# RNA 2: AGGCUUGGGUGGUC
# B18: MiniH dLoop (dsRNA)
# RNA 1: CCACUCAGGCCUACCA
# RNA 2: AGGCUUGGGUGG
# B19: MiniH dLoop+4bp (dsRNA)
# RNA 1: GUGACCACUCAGGCCUACCA
# RNA 2: AGGCUUGGGUGGUUAC
# Molecular target: T1, Arc1p dN
# Experiment: ITC; ITC (Arc1p): 25 mM Tris-HCl pH 7.4, 150 mM NaCl, 2 mM MgCl2, 25 °C. FP and competition FP: 25 mM Tris-HCl pH 7.5, 150 mM NaCl (Arc1p) or 50 mM NaCl (Trbp111), 2 mM MgCl2, room temperature
# Details: protein: recombinant; tags: His-MBP removed; elbow disrupted
row,Binder,Kd
1,B1,3.33 µM
2,B2,2.79 ± 0.304 µM

# Same assay, conditions: protein: recombinant; tags: His-MBP removed; palindromic tail, strong dimer
row,Binder,Kd
1,B3,3.3 µM

# Same assay, conditions: protein: recombinant; tags: His-MBP removed; palindromic tail, weak dimer
row,Binder,Kd
1,B4,1.5 ± 0.283 µM

# Same assay, conditions: protein: recombinant; tags: His-MBP removed; tRNA fold
row,Binder,Kd
1,B5,0.654 ± 0.165 µM
2,B6,0.252 ± 0.11 µM
3,B7,1.04 ± 0.295 µM
4,B8,2.1 ± 0.985 µM
5,B9,1.75 ± 0.958 µM

# Molecular target: T2, Arc1p
# Experiment: competition fluorescence polarization; ITC (Arc1p): 25 mM Tris-HCl pH 7.4, 150 mM NaCl, 2 mM MgCl2, 25 °C. FP and competition FP: 25 mM Tris-HCl pH 7.5, 150 mM NaCl (Arc1p) or 50 mM NaCl (Trbp111), 2 mM MgCl2, room temperature
# Details: protein: recombinant; tags: His-MBP removed
row,Binder,IC50
1,B10,9.92 µM
2,B11,5.11 µM
3,B12,4.52 µM
4,B13,1.71 ± 0.125 µM

# Same assay, conditions: protein: recombinant; tags: His-MBP removed; tRNA-like
row,Binder,IC50
1,B14,1.14 ± 0.127 µM

# Molecular target: T3, Trbp111 (Aquifex aeolicus, UniProt O66738 1-111)
# T3 sequence (O66738 entry or part of it): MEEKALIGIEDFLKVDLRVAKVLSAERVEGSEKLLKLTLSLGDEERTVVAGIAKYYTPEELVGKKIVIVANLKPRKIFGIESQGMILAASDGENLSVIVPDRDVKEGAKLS
# Experiment: as above
# Details: protein: recombinant; tags: His-MBP removed (PreScission); chain copies: 2; hairpin
Binder,binding result,IC50
AGGCUUGGGUGGUUCAAGUCCACUCAGGCCU (structured_RNA) [MiniH dACCA],no binding,–
AGGCUUCGAAAGAGGCCUACCA (structured_RNA) [MicroH GAAA loop],–,5.92 ± 0.188 µM
AGGCUUGGGUGGUUCAAGUCCACUCAGGCCUACA (structured_RNA) [MiniH dC74],–,5.06 ± 0.269 µM
AGGCUUGGGUGGUUCAAGUCCACUCAGGCCUCCA (structured_RNA) [MiniH dA73],–,5.21 ± 0.817 µM
AGGCUUGGGUGGUUCAAGUCCACUCAGGCCUACCAUUUU (structured_RNA) [MiniH +UUUU],no binding,–
"AGGCUUGGGUGGUUCAAGUCCACUCAGGCCUACCA (mixed, four terminal deoxyriboses) [MiniH DNA tail]",–,7.51 ± 1.02 µM
AGGCUUCGAAAGAGGCCUUGGU (structured_RNA) [MicroH UGGU],no binding,–

# Same assay, conditions: protein: recombinant; tags: His-MBP removed (PreScission); chain copies: 2; single strand
Binder,IC50,binding result
CCACUCAGGCCUACCA (ssRNA) [ssRNA 3'ACCA],8.63 ± 0.796 µM,–
ACCACUCACGCCU (ssRNA) [ssRNA 5'ACCA],–,no binding
CCACUCAGGCCU (ssRNA) [ssRNA dACCA],–,no binding

# Molecular target: T1, Arc1p dN
# Experiment: as above
# Details: protein: recombinant; tags: His-MBP removed
row,Binder,IC50
1,B10,0.681 ± 0.201 µM
2,B11,1.02 ± 0.224 µM
3,B15,0.804 ± 0.107 µM
4,AGGCUUUUCAAGUAGGCCUUGGU (structured_RNA) [MicroH 3'UGGU],15.3 ± 3.31 µM
5,AGGCUUGGGUGGUUUUUUUCCACUCAGGCCUACCA (structured_RNA) [MiniH ULoop],3.95 ± 0.248 µM
6,B16,3.47 ± 0.263 µM
7,B17,4.66 ± 1.43 µM
8,B12,0.652 ± 0.0471 µM
9,AGGCUUGGGUGGUUCAAGUCCACUCAGGCCUACAA (structured_RNA) [MiniH-ACAA],3.08 ± 0.63 µM
10,AGGCUUGGGUGGUUCAAGUCCACUCAGGCCUACGA (structured_RNA) [MiniH-ACGA],4.83 ± 0.11 µM
11,AGGCUUGGGUGGUUCAAGUCCACUCAGGCCUACUA (structured_RNA) [MiniH-ACUA],2.6 ± 0.397 µM
12,B13,0.402 ± 0.0538 µM
13,B18,2.26 ± 1.21 µM
14,B19,3.9 ± 0.124 µM
15,AGGCUUGGGUGCGAAAGCACUCAGGCCUACCA (structured_RNA) [MiniH LoopGAAA],3.06 ± 0.0821 µM

# Same assay, conditions: protein: recombinant; tags: His-MBP removed; hairpin
row,Binder,IC50
1,AGGCUUGGGUGGUUCAAGUCCACUCAGGCCU (structured_RNA) [MiniH dACCA],10.5 ± 2.82 µM
2,AGGCUUUUCAAGUAGGCCU (structured_RNA) [MicroH dACCA],53.7 ± 5.22 µM
3,AGGCUUCGAAAGAGGCCUACCA (structured_RNA) [MicroH GAAA loop],13.4 ± 5.38 µM
4,AGGCUUGGGUGGUUCAAGUCCACUCAGGCCUACA (structured_RNA) [MiniH dC74],3.03 ± 0.158 µM
5,AGGCUUGGGUGGUUCAAGUCCACUCAGGCCUCCA (structured_RNA) [MiniH dA73],2.45 ± 0.511 µM
6,AGGCUUGGGUGGUUCAAGUCCACUCAGGCCUACCAUUUU (structured_RNA) [MiniH +UUUU],9.39 ± 0.782 µM
7,AGGCUUGGGUGGUUCAAGUCCACUCAGGCCUACAC (structured_RNA) [MiniH-ACAC],3.92 ± 0.672 µM
8,AGGCUUCGAAAGAGGCCUUGGU (structured_RNA) [MicroH UGGU],43 ± 7.65 µM

# Same assay, conditions: protein: recombinant; tags: His-MBP removed; tRNA-like
row,Binder,IC50
1,B14,0.377 ± 0.0571 µM

# Molecular target: T3, Trbp111
# Experiment: competition FP; vs fluorescein-tRNATyr; FP: 25 mM Tris-HCl pH 7.5, 2 mM MgCl2, 50 mM NaCl (Trbp111) or 150 mM NaCl (Arc1p), room temperature; ITC: 25 mM Tris-HCl pH 7.4, 150 mM NaCl, 2 mM MgCl2, 25 C
# Details: protein: recombinant; tags: His-MBP removed (PreScission); chain copies: 2; single strand
row,Binder,IC50
1,CCACUCAGGCCUACCA (ssRNA) [ssRNA 3'ACCA],8.2 ± 0.8 µM
